Assay results published in paper PMC4197815.

Target: NL2HA-S714A (human) (UniProt Q8NFZ4)
Assay: co-IP

Chain of UniProt Q8NFZ4 (Q8NFZ4 15-835, stated change not applied): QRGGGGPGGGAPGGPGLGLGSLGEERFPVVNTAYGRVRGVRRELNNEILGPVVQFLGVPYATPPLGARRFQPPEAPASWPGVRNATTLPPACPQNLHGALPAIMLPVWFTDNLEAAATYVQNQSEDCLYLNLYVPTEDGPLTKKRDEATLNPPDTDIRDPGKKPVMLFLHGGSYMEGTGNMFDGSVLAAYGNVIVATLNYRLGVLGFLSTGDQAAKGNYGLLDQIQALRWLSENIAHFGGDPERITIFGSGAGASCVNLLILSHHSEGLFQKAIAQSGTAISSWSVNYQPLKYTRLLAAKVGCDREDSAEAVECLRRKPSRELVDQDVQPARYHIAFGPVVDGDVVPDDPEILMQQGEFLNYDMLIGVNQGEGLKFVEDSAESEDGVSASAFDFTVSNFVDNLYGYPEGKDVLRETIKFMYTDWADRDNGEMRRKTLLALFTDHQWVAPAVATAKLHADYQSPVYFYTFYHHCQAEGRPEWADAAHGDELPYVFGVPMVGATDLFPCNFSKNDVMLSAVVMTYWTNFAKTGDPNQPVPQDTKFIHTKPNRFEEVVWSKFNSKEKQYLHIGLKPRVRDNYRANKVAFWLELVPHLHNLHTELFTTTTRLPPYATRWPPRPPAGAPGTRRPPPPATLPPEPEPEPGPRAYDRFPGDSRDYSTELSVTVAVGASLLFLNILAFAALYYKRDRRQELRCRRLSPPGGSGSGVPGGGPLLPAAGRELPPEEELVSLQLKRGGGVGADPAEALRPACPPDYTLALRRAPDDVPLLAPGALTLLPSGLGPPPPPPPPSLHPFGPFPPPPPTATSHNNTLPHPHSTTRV

increase of co-precipitated gephyrin-FLAG against NL2HA: 140%
B1: gephyrin-FLAG (natural protein)
chain: MATEGMILTNHDHQIRVGVLTVSDSCFRNLAEDRSGINLKDLVQDPSLLGGTISAYKIVPDEIEEIKETLIDWCDEKELNLILTTGGTGFAPRDVTPEATKEVIEREAPGMALAMLMGSLNVTPLGMLSRPVCGIRGKTLIINLPGSKKGSQECFQFILPALPHAIDLLRDAIVKVKEVHDELEDLPSPPPPLSPPPTTSPHKQTEDKGVQCEEEEEEKKDSGVASTEDSSSSHITAAALAAKIPDSIISRGVQVLPRDTASLSTTPSESPRAQATSRLSTASCPTPKVQSRCSSKENILRASHSAVDITKVARRHRMSPFPLTSMDKAFITVLEMTPVLGTEIINYRDGMGRVLAQDVYAKDNLPPFPASVKDGYAVRAADGPGDRFIIGESQAGEQPTQTVMPGQVMRVTTGAPIPCGADAVVQVEDTELIRESDDGTEELEVRILVQARPGQDIRPIGHDIKRGECVLAKGTHMGPSEIGLLATVGVTEVEVNKFPVVAVMSTGNELLNPEDDLLPGKIRDSNRSTLLATIQEHGYPTINLGIVGDNPDDLLNALNEGISRADVIITSGGVSMGEKDYLKQVLDIDLHAQIHFGRVFMKPGLPTTFATLDIDGVRKIIFALPGNPVSAVVTCNLFVVPALRKMQGILDPRPTIIKARLSCDVKLDPRPEYHRCILTWHHQEPLPWAQSTGNQMSSRLMSMRSANGLLMLPPKTEQYVELHKGEVVDVMVIGRL
